Earlier results in article PMC3433420.
Read-outs that look alike come from different tables or passages of the source.

How the values were obtained:
Settings in all cases: cited from earlier work
PIK3R2-N (Homo sapiens) = PIK3R2-N (Homo sapiens) (UniProt O00459)
PLCG2-NC (Homo sapiens) = PLCG2-NC (Homo sapiens) (UniProt P16885)
SHC1-PTB (Homo sapiens) = SHC1-PTB (Homo sapiens) (UniProt P29353)
SHC3 (Homo sapiens) [1] = molecular target: SHC3 (Homo sapiens) (UniProt Q92529)
PIK3R1-N (Homo sapiens) = PIK3R1-N (Homo sapiens) (UniProt P27986)
PIK3R3-C (Homo sapiens) [2] = molecular target: PIK3R3-C (Homo sapiens) (UniProt Q92569)
SYK-NC (Homo sapiens) [3] = molecular target: SYK-NC (Homo sapiens) (UniProt P43405)
RASA1-NC (Homo sapiens) [4] = molecular target: RASA1-NC (Homo sapiens) (UniProt P20936)
SYK-NC (Homo sapiens) [5] = molecular target: SYK-NC (Homo sapiens) (UniProt P43405); remark: listed apart in the source
TEC (Homo sapiens) = TEC (Homo sapiens) (UniProt P42680)
SRC (Homo sapiens) [6] = molecular target: SRC (Homo sapiens) (UniProt P12931)
SHC2-PTB (Homo sapiens) = SHC2-PTB (Homo sapiens) (UniProt P98077)
RASA1-NC (Homo sapiens) [7] = molecular target: RASA1-NC (Homo sapiens) (UniProt P20936); remark: listed apart in the source
ABL2 (Homo sapiens) = ABL2 (Homo sapiens) (UniProt P42684)
SOCS3 (Homo sapiens) = SOCS3 (Homo sapiens) (UniProt O14543)
ABL1 (Homo sapiens) = ABL1 (Homo sapiens) (UniProt P00519)
SRC (Homo sapiens) [8] = molecular target: SRC (Homo sapiens) (UniProt P12931); remark: listed apart in the source
TENC1 (Homo sapiens) = TENC1 (Homo sapiens) (UniProt Q63HR2)
PIK3R3-NC (Homo sapiens) = PIK3R3-NC (Homo sapiens) (UniProt Q92569)
SH2D3A (Homo sapiens) = SH2D3A (Homo sapiens) (UniProt Q9BRG2)
PIK3R3-C (Homo sapiens) [9] = molecular target: PIK3R3-C (Homo sapiens) (UniProt Q92569); remark: listed apart in the source
SOCS2 (Homo sapiens) = SOCS2 (Homo sapiens) (UniProt O14508)
SRC (Homo sapiens) [10] = molecular target: SRC (Homo sapiens) (UniProt P12931); remark: listed apart in the source
VAV2 (Homo sapiens) = VAV2 (Homo sapiens) (UniProt P52735)
PIK3R3-N (Homo sapiens) = PIK3R3-N (Homo sapiens) (UniProt Q92569)
SRC (Homo sapiens) [11] = molecular target: SRC (Homo sapiens) (UniProt P12931); remark: listed apart in the source
PIK3R2-NC (Homo sapiens) = PIK3R2-NC (Homo sapiens) (UniProt O00459)
SYK-NC (Homo sapiens) [12] = molecular target: SYK-NC (Homo sapiens) (UniProt P43405); remark: listed apart in the source
HCK (Homo sapiens) = HCK (Homo sapiens) (UniProt P08631)
SHC3 (Homo sapiens) [13] = molecular target: SHC3 (Homo sapiens) (UniProt Q92529); remark: listed apart in the source
PIK3R1-NC (Homo sapiens) = PIK3R1-NC (Homo sapiens) (UniProt P27986)
Sequence of PIK3R1-NC (Homo sapiens) (P27986 328-723): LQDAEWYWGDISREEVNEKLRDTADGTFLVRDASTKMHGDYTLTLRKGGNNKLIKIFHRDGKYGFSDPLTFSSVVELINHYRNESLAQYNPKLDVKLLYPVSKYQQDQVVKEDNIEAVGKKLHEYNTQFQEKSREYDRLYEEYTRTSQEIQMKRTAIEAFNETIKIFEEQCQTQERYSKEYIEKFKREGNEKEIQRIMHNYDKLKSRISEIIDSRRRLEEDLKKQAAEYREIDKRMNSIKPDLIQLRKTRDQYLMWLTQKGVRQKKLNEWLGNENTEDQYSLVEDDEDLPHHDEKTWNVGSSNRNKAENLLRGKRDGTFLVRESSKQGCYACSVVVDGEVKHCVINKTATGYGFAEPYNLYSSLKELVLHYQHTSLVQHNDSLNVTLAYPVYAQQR

Sequence of RASA1-NC (Homo sapiens) (P20936 176-446): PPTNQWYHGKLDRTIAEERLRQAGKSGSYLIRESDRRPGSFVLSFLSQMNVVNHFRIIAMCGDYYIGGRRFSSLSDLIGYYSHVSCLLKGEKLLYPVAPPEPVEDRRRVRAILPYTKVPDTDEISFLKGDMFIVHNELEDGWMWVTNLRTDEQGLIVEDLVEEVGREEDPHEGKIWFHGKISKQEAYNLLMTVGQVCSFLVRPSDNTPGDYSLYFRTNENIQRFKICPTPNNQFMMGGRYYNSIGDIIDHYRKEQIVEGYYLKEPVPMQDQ
Sequence of SHC3 (Homo sapiens) (Q92529 494-594): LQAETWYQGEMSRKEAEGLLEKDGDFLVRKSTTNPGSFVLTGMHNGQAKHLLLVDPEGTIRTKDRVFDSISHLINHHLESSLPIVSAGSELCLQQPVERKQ
Sequence of TEC (Homo sapiens) (P42680 242-350): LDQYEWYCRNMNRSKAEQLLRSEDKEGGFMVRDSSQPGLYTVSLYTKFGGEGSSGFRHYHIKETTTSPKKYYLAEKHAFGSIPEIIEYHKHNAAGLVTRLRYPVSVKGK
Sequence of PIK3R1-N (Homo sapiens) (P27986 328-723): as the sequence (P27986 328-723) above
Sequence of SOCS3 (Homo sapiens) (O14543 41-147): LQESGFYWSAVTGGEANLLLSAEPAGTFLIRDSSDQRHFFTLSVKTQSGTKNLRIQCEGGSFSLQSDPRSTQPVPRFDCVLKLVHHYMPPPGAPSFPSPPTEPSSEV
Sequence of SOCS2 (Homo sapiens) (O14508 43-161): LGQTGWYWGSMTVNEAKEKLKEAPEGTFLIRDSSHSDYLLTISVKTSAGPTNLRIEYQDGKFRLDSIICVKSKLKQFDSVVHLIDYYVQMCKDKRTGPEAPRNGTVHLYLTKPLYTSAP
Sequence of SHC2-PTB (Homo sapiens) (P98077 482-582): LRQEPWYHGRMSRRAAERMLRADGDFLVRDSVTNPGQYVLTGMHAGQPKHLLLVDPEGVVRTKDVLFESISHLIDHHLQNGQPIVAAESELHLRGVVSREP
Sequence of HCK (Homo sapiens) (P08631 139-246): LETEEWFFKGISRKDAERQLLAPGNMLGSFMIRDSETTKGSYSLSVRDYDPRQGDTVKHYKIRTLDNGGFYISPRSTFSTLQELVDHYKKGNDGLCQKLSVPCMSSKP
Sequence of VAV2 (Homo sapiens) (P52735 668-772): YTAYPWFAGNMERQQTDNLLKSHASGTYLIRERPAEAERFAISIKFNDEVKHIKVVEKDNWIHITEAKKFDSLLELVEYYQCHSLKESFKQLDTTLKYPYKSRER
Sequence of ABL2 (Homo sapiens) (P42684 168-268): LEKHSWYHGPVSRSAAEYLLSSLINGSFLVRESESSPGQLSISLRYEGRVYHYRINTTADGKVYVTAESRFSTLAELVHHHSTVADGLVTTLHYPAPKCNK
Sequence of PIK3R2-NC (Homo sapiens) (O00459 325-721): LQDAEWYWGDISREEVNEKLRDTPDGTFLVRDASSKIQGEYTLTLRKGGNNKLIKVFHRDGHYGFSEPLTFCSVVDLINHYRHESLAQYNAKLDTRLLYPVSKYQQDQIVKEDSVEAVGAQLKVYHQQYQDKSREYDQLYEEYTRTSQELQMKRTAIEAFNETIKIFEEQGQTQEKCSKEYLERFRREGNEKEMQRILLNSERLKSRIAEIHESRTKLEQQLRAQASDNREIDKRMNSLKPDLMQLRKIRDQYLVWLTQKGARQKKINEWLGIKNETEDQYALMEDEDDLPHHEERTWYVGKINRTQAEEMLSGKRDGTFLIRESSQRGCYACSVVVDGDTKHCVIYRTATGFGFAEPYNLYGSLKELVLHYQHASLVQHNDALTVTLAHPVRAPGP
Sequence of PIK3R2-N (Homo sapiens) (O00459 325-721): as above
Sequence of SH2D3A (Homo sapiens) (Q9BRG2 10-119): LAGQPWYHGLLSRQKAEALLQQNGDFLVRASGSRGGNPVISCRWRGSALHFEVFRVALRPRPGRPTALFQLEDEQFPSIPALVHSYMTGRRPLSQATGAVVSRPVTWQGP
Sequence of PLCG2-NC (Homo sapiens) (P16885 527-740): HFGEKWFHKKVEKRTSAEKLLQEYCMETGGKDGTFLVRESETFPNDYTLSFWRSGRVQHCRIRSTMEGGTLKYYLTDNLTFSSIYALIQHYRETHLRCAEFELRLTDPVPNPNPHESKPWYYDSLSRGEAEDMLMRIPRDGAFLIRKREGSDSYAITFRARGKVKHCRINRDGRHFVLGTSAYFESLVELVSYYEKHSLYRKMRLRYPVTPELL
Sequence of ABL1 (Homo sapiens) (P00519 122-222): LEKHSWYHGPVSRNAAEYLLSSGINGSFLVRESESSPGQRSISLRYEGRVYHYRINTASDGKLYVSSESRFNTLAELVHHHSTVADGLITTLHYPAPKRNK
Sequence of TENC1 (Homo sapiens) (Q63HR2 1135-1252): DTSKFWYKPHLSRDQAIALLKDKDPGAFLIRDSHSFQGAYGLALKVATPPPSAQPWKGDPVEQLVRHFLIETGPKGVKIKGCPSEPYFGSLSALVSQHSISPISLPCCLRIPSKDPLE
Sequence of SHC1-PTB (Homo sapiens) (P29353 483-583): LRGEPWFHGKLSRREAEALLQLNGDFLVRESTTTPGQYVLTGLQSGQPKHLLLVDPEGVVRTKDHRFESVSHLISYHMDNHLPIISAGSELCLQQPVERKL

Substance: …pYLIPQQGFd
- apparent Kd (screen) (PIK3R2-N (Homo sapiens)): 425 nM
- apparent Kd (screen) (PLCG2-NC (Homo sapiens)): 2000 nM
- apparent Kd (screen) (SHC1-PTB (Homo sapiens)): 628 nM
- apparent Kd (screen) (SHC3 (Homo sapiens) [1]): 216 nM
- apparent Kd (screen) (PIK3R1-N (Homo sapiens)): 899 nM
- apparent Kd (screen) (PIK3R3-C (Homo sapiens) [2]): 193 nM
- apparent Kd (screen) (SYK-NC (Homo sapiens) [3]): 611 nM

Substance: …pYLVPQQGF
- apparent Kd (screen) (RASA1-NC (Homo sapiens) [4]): 1770 nM
- apparent Kd (screen) (SYK-NC (Homo sapiens) [5]): 372 nM
- apparent Kd (screen) (TEC (Homo sapiens)): 2000 nM
- apparent Kd (screen) (SRC (Homo sapiens) [6]): 757 nM
- apparent Kd (screen) (SHC2-PTB (Homo sapiens)): 2000 nM
- apparent Kd (screen) (RASA1-NC (Homo sapiens) [7]): 2000 nM
- apparent Kd (screen) (ABL2 (Homo sapiens)): 2000 nM

Substance: …pYWDQDPPE
- apparent Kd (screen) (SOCS3 (Homo sapiens)): 2000 nM
- apparent Kd (screen) (ABL1 (Homo sapiens)): 1840 nM
- apparent Kd (screen) (SRC (Homo sapiens) [8]): 196 nM
- apparent Kd (screen) (TENC1 (Homo sapiens)): 843 nM
- apparent Kd (screen) (PIK3R3-NC (Homo sapiens)): 783 nM
- apparent Kd (screen) (SH2D3A (Homo sapiens)): 1600 nM
- apparent Kd (screen) (PIK3R3-C (Homo sapiens) [9]): 2000 nM
- apparent Kd (screen) (SOCS2 (Homo sapiens)): 2000 nM
- apparent Kd (screen) (SRC (Homo sapiens) [10]): 2000 nM

Substance: …pYEEMRAFQ
- apparent Kd (screen) (VAV2 (Homo sapiens)): 2000 nM
- apparent Kd (screen) (PIK3R3-N (Homo sapiens)): 58 nM
- apparent Kd (screen) (SRC (Homo sapiens) [11]): 999 nM
- apparent Kd (screen) (PIK3R2-NC (Homo sapiens)): 86 nM
- apparent Kd (screen) (SYK-NC (Homo sapiens) [12]): 1100 nM
- apparent Kd (screen) (HCK (Homo sapiens)): 499 nM
- apparent Kd (screen) (SHC3 (Homo sapiens) [13]): 123 nM
- apparent Kd (screen) (PIK3R1-NC (Homo sapiens)): 49 nM
